From paper PMC4997581 come the findings set out here.

Holding throughout (assay): co-IP
Test [1] deals with Cyclin B1 (human (endogenous in 293T and HFF)) (UniProt P14635).
Test [2] concerns the target Cyclin H (human (endogenous in 293T and HFF)) (UniProt P51946).
Test [3] has as its target Cyclin T1 (human (endogenous in 293T and HFF)) (UniProt O60563).

Sequence of Cyclin T1 (human (endogenous in 293T and HFF)) (O60563 whole entry): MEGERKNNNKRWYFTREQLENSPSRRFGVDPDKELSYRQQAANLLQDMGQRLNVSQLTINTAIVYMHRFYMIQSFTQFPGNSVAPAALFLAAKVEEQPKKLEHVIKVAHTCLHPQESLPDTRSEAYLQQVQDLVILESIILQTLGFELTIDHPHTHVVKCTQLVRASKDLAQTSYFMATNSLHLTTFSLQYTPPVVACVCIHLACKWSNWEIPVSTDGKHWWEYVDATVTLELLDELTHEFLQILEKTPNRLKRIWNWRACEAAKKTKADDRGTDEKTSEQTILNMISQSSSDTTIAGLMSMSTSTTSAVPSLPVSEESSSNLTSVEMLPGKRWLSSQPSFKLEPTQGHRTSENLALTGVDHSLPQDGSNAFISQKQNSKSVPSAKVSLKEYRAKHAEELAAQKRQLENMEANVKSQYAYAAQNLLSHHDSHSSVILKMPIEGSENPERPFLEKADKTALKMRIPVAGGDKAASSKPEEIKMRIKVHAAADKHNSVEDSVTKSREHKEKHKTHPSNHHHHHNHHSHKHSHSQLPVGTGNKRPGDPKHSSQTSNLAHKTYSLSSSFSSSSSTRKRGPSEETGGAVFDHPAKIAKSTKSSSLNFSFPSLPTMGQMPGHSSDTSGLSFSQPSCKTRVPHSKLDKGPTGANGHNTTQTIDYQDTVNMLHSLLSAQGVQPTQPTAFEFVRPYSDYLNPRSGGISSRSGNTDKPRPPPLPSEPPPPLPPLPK
Sequence of Cyclin H (human (endogenous in 293T and HFF)) (P51946 whole entry): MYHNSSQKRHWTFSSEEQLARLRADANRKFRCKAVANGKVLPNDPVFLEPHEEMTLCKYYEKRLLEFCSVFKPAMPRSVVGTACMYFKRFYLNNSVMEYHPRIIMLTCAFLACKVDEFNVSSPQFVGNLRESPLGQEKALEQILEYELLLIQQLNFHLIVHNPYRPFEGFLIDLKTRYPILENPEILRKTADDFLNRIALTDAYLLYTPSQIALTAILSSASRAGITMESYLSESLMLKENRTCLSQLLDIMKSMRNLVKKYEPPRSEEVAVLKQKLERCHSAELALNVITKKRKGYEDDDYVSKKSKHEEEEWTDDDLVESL
Sequence of Cyclin B1 (human (endogenous in 293T and HFF)) (P14635 whole entry): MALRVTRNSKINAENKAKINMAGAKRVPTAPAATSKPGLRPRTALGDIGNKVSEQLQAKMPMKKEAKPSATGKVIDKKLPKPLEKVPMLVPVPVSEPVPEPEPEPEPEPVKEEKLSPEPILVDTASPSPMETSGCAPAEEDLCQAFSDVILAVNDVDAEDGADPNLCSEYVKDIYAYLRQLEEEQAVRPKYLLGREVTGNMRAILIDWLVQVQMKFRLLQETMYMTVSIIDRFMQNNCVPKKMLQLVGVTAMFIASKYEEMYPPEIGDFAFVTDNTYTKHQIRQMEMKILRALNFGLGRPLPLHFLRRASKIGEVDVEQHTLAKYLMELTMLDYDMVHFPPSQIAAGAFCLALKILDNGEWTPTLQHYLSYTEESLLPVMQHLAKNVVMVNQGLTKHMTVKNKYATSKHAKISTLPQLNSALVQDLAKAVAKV

Turning to “Protein kinase pUL97 of HCMV AD169, in infected cells (natural protein)”, the pUL97 co-IP Western blot signal relative to cyclin B1 in test [1] turned out to be 100%; in test [2] it was 160%; in test [3] it was 77%.

In test [3], “pUL97 stably expressed in transduced HFFs (from UniProt P16788 1-707) (natural protein)” displayed a pUL97 co-IP Western blot signal relative to cyclin B1 of 42%.

With “HCMV protein kinase pUL97, Flag-tagged (pUL97-Flag) (from UniProt P16788 1-707) (natural protein)”, the pUL97 co-IP Western blot signal relative to cyclin B1 in test [2] was 4%; in test [3], 9%.
